Experimental data from the Human Domainome abundance scans (Beltran et al. 2025).
± gives the uncertainty stated by the source.

B1: SAM and SH3 domain-containing protein 1, residues 630 to 700; numbered along this chain, O94885 (parent)
chain: GRPPQPKSVEDLLDRINLKEHMPTFLFNGYEDLDTFKLLEEEDLDELNIRDPEHRAVLLTAVELLQEYDSN

Variants of: B1
Assay: abundance fitness (aPCA) (normalised: wild type 0, dead -1); higher = more abundant; growth selection in yeast, the domain comes from the species named
Settings: Homo sapiens

Variant	abundance fitness
K37H	-0.76 ± 0.086
K37G	-0.669 ± 0.073
K37N	-0.799 ± 0.074
K37I	-0.848 ± 0.093
K37D	-0.791 ± 0.1
K37T	-0.615 ± 0.062
Q66F	-0.694 ± 0.061
Q66V	-0.587 ± 0.054
Q66C	-0.448 ± 0.064
Q66T	-0.347 ± 0.044
E31T	0.251 ± 0.033
E31K	0.124 ± 0.045
E31A	0.207 ± 0.033
E31H	0.195 ± 0.038
E31L	-0.37 ± 0.036
E31P	-0.15 ± 0.039
E31M	-0.158 ± 0.046
T60F	-0.613 ± 0.06
T60C	-0.293 ± 0.049
E41G	-0.465 ± 0.07
E41S	-0.34 ± 0.042
E41F	-0.971 ± 0.091
L47C	-0.577 ± 0.055
L47R	-0.922 ± 0.055

Variant	abundance fitness
L47F	-0.828 ± 0.061
L47K	-0.781 ± 0.1
L47P	-0.799 ± 0.066
D69Y	-0.644 ± 0.066
D69I	-0.836 ± 0.09
D69R	-0.531 ± 0.058
D69F	-0.811 ± 0.093
D69C	-0.479 ± 0.094
D69H	-0.327 ± 0.056
Q5N	-0.113 ± 0.055
Q5C	0.007 ± 0.064
Q5R	-0.25 ± 0.049
Q5T	-0.365 ± 0.057
Q5S	-0.334 ± 0.047
D32H	-0.187 ± 0.048
D32C	-0.292 ± 0.055
D32W	-0.75 ± 0.069
D32K	-0.197 ± 0.05
D32T	0.172 ± 0.036
N71Q	0.121 ± 0.059
N71H	0.056 ± 0.048
L12T	-0.829 ± 0.071
L12K	-0.99 ± 0.12
L12E	-0.768 ± 0.084

Variant	abundance fitness
R15V	-0.381 ± 0.046
R15D	-0.454 ± 0.065
R15C	-0.374 ± 0.059
R15A	0.055 ± 0.038
A61Y	-0.609 ± 0.082
A61S	-0.225 ± 0.042
A61M	-0.324 ± 0.055
A61V	-0.644 ± 0.063
A61F	-0.759 ± 0.094
N48L	-0.741 ± 0.1
N48P	-0.837 ± 0.16
N48R	-0.319 ± 0.08
N48H	-0.056 ± 0.12
N48G	0.197 ± 0.057
L38E	0.03 ± 0.051
L38T	0.23 ± 0.041
L38R	-0.041 ± 0.037
L38D	-0.175 ± 0.053
L38K	0.117 ± 0.053
L38N	0.054 ± 0.053
P23E	0.282 ± 0.049
P23A	0.113 ± 0.043
P23T	-0.019 ± 0.04
P23L	-0.056 ± 0.037

Variant	abundance fitness
E67Y	-0.396 ± 0.056
E67T	-0.048 ± 0.04
E67W	-0.438 ± 0.06
E67D	0.02 ± 0.053
E67H	-0.165 ± 0.047
E67A	-0.082 ± 0.048
R2E	-0.634 ± 0.1
R2Q	-0.412 ± 0.076
R2H	-0.301 ± 0.085
R2K	-0.212 ± 0.05
R2C	-0.971 ± 0.13
R2G	-0.509 ± 0.077
K19H	-0.262 ± 0.05
K19F	-0.654 ± 0.061
K19Y	-0.532 ± 0.06
K19L	0.127 ± 0.031
K19M	-0.058 ± 0.043
K19Q	0.002 ± 0.044
K19G	-0.236 ± 0.051
K19A	-0.055 ± 0.039
L33K	-1 ± 0.13
L33D	-0.76 ± 0.092
L33H	-0.791 ± 0.083
L33Y	-1.15 ± 0.12

Variant	abundance fitness
L33F	-0.697 ± 0.087
L33M	-0.64 ± 0.084
E53W	-0.575 ± 0.075
E53A	-0.089 ± 0.041
R55Q	-0.5 ± 0.071
R55V	-0.591 ± 0.057
R55L	-1.01 ± 0.071
R55F	-0.864 ± 0.093
R55E	-0.522 ± 0.081
L18E	-0.797 ± 0.092
L18K	-0.77 ± 0.077
L18A	-0.804 ± 0.064
L18P	-0.996 ± 0.085
L18M	0.158 ± 0.044
L18T	-0.73 ± 0.06
S70T	0.422 ± 0.28
D34C	-0.468 ± 0.061
D34T	-0.415 ± 0.043
D34S	-0.158 ± 0.035
D34K	-0.291 ± 0.054
D34I	-0.793 ± 0.067
D34R	-0.465 ± 0.045
G29W	-0.937 ± 0.11
G29K	-0.925 ± 0.11

Variant	abundance fitness
G29I	-0.893 ± 0.1
G29A	-0.806 ± 0.062
G29L	-0.907 ± 0.063
V57I	-0.059 ± 0.048
V57S	0.243 ± 0.034
V57H	-0.166 ± 0.049
A56G	-0.337 ± 0.05
A56W	-0.816 ± 0.086
A56L	-0.334 ± 0.035
E63D	-0.058 ± 0.044
E63W	-0.751 ± 0.081
E63N	-0.066 ± 0.043
E63I	-0.898 ± 0.077
E63H	-0.075 ± 0.042
E63G	-0.15 ± 0.042
L58T	-0.72 ± 0.07
L58H	-0.53 ± 0.07
L58C	-0.82 ± 0.1
L58Y	-0.905 ± 0.11
L58K	-0.588 ± 0.085
L58V	-0.53 ± 0.06
L58Q	-0.468 ± 0.073
L58P	-0.501 ± 0.067
D45H	-0.538 ± 0.053

Variant	abundance fitness
D45Y	-0.496 ± 0.052
D45T	-0.38 ± 0.042
D45N	-0.272 ± 0.045
D45L	-0.113 ± 0.033
D14T	-0.086 ± 0.045
D14K	-0.273 ± 0.065
D14I	-0.293 ± 0.054
Y68W	-0.056 ± 0.051
Y68R	0.094 ± 0.038
Y68N	0.138 ± 0.053
Y68V	-0.038 ± 0.043
P4W	-0.008 ± 0.065
P4T	0.101 ± 0.046
P4Y	0.067 ± 0.049
E20A	-0.699 ± 0.084
E20D	-0.498 ± 0.11
E20T	-0.48 ± 0.065
E20R	-0.596 ± 0.064
L59F	-0.792 ± 0.07
L59S	-0.514 ± 0.043
L59V	-0.735 ± 0.058
L59M	0.001 ± 0.048
E40T	0.398 ± 0.035
